Experimental data published in US20240252614A1 (Pfizer, published 2024).

Legend:
hMPV A F WT Control [1] = molecular target: T1, hMPV A F WT Control (hMPV A, UniProt Q6WB98 19-102); assay: BLI, 58C stress
Protocol: (§1) The OCTET HTX (Sartorius, Gottingen, Germany) instrument was used to evaluate the expression and conformational integrity for each mutant. All measurements were conducted at 30° C. temperature in 96-well black plates (Corning, Corning, NY) with a final volume of 240 μL per well at a constant agitation rate of 1000 RPM.
(§2) Conformation integrity of hMPV A F protein mutants were evaluated by thermal stress experiments. Crude cell culture supernatants were normalized based on the results of the titer quantitation and then incubated for 1 hour at room temperature and two higher temperatures. […] Anti-Human IgG Fc Capture (AHC) biosensors were first equilibrated in PB before being dipped into more PB to establish the initial baseline. […] The mAb-bound biosensors were then dipped into the thermal stressed cell culture supernatants for 5 minutes. The kinetics analysis was done by OCTET data analysis software (version 12.0, Sartorius) based on curve fitting of the entire associate step.

hMPV090 = molecular target: T2, hMPV090 (hMPV A, UniProt Q6WB98 19-102); assay: BLI, 58C stress
T2 construct: T411C-Q434C, L141C-A161C, A459P, G239A, T49I, S149T, T365I
Protocol: as §1, §2

hMPV088 = molecular target: T3, hMPV088 (hMPV A, UniProt Q6WB98 19-102); assay: BLI, 58C stress
T3 construct: T411C-Q434C, L141C-A161C, G239A
Protocol: as §1, §2

hMPV087 = molecular target: T4, hMPV087 (hMPV A, UniProt Q6WB98 19-102); assay: BLI, 58C stress
T4 construct: T411C-Q434C, L141C-A161C, T365I
Protocol: as §1, §2

hMPV084 = molecular target: T5, hMPV084 (hMPV A, UniProt Q6WB98 19-102); assay: BLI, 58C stress
T5 construct: T411C-Q434C, L141C-A161C
Protocol: as §1, §2

hMPV079 = molecular target: T6, hMPV079 (hMPV A, UniProt Q6WB98 19-102); assay: BLI, 58C stress
T6 construct: T411C-Q434C, A140C-S149C, A459P
Protocol: as §1, §2

hMPV085 = molecular target: T7, hMPV085 (hMPV A, UniProt Q6WB98 19-102); assay: BLI, 58C stress
T7 construct: T411C-Q434C, L141C-A161C, A459P
Protocol: as §1, §2

hMPV081 = molecular target: T8, hMPV081 (hMPV A, UniProt Q6WB98 19-102); assay: BLI, 58C stress
T8 construct: T411C-Q434C, A140C-S149C, T365I
Protocol: as §1, §2

hMPV097 = molecular target: T9, hMPV097 (hMPV A, UniProt Q6WB98 19-102); assay: BLI, 58C stress
T9 construct: T411C-Q434C, E146C-T160C, A459P, G239A, T49I, S149T, T365I
Protocol: as §1, §2

hMPV083 = molecular target: T10, hMPV083 (hMPV A, UniProt Q6WB98 19-102); assay: BLI, 58C stress
T10 construct: T411C-Q434C, A140C-S149C, A459P, G239A, T49I, T365I
Protocol: as §1, §2

hMPV086 = molecular target: T11, hMPV086 (hMPV A, UniProt Q6WB98 19-102); assay: BLI, 58C stress
T11 construct: T411C-Q434C, L141C-A161C, T49I; also called hMP0086
Protocol: as §1, §2

hMPV078 = molecular target: T12, hMPV078 (hMPV A, UniProt Q6WB98 19-102); assay: BLI, 58C stress
T12 construct: T411C-Q434C, A140C-S149C
Protocol: as §1, §2

hMPV082 = molecular target: T13, hMPV082 (hMPV A, UniProt Q6WB98 19-102); assay: BLI, 58C stress
T13 construct: T411C-Q434C, A140C-S149C, G239A
Protocol: as §1, §2

hMPV A F WT Control [2] = molecular target: T1, hMPV A F WT Control; assay: BLI, 50C stress, vs WT Control
Protocol: as §1, §2

hMPV044 = molecular target: T14, hMPV044 (hMPV A, UniProt Q6WB98 19-102); assay: BLI, 50C stress, vs WT Control
T14 construct: T411C-Q434C
Protocol: as §1, §2

hMPV049 = molecular target: T15, hMPV049 (hMPV A, UniProt Q6WB98 19-102); assay: BLI, 50C stress, vs WT Control
T15 construct: E146C-T160C
Protocol: as §1, §2

hMPV060 = molecular target: T16, hMPV060 (hMPV A, UniProt Q6WB98 19-102); assay: BLI, 50C stress, vs WT Control
T16 construct: A459P
Protocol: as §1, §2

hMPV061 [3] = molecular target: T17, hMPV061 (hMPV A, UniProt Q6WB98 19-102); assay: BLI, 50C stress, vs WT Control
T17 construct: G106A
Protocol: as §1, §2

hMPV075 = molecular target: T18, hMPV075 (hMPV A, UniProt Q6WB98 19-102); assay: BLI, 50C stress, vs WT Control
T18 construct: L473F
Protocol: as §1, §2

hMPV071 = molecular target: T19, hMPV071 (hMPV A, UniProt Q6WB98 19-102); assay: BLI, 50C stress, vs WT Control
T19 construct: T365I
Protocol: as §1, §2

hMPV047 = molecular target: T20, hMPV047 (hMPV A, UniProt Q6WB98 19-102); assay: BLI, 50C stress, vs WT Control
T20 construct: L141C-A159C
Protocol: as §1, §2

hMPV059 = molecular target: T21, hMPV059 (hMPV A, UniProt Q6WB98 19-102); assay: BLI, 50C stress, vs WT Control
T21 construct: V449P
Protocol: as §1, §2

hMPV067 = molecular target: T22, hMPV067 (hMPV A, UniProt Q6WB98 19-102); assay: BLI, 50C stress, vs WT Control
T22 construct: S149T
Protocol: as §1, §2

hMPV069 = molecular target: T23, hMPV069 (hMPV A, UniProt Q6WB98 19-102); assay: BLI, 50C stress, vs WT Control
T23 construct: S291I
Protocol: as §1, §2

hMPV061 [4] = molecular target: T17, hMPV061; assay: BLI, 50C stress
Protocol: as §1, §2

hMPV063 = molecular target: T24, hMPV063 (hMPV A, UniProt Q6WB98 19-102); assay: BLI, 50C stress
T24 construct: G239A
Protocol: as §1, §2

hMPV045 = molecular target: T25, hMPV045 (hMPV A, UniProt Q6WB98 19-102); assay: BLI, 50C stress
T25 construct: I137C-A159C
Protocol: as §1, §2

hMPV048 = molecular target: T26, hMPV048 (hMPV A, UniProt Q6WB98 19-102); assay: BLI, 50C stress
T26 construct: L141C-A161C
Protocol: as §1, §2

[5] = molecular target: T27, PIV1 F literature prefusion comparison (PIV1); assay: BLI, 53C stress;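 further: binding of thermally stressed PIV1 F mutant supernatant to mAb on AHC biosensors for 5 min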
T27 construct: F113G, F114S, A466I, S473I (Stewart-Jones et al. 2018)
Protocol: as §1
(§3) Conformation integrity of PIV1 F protein mutants were evaluated by a thermal stress experiment. Crude cell culture supernatants were normalized based on the results of the titer quantitation and then incubated for 1 hour at room temperature and two higher temperatures. For the initial testing of PIV1 mutants, the two temperatures were 50° C. and 53° C. […] Anti-Human IgG Fc Capture (AHC) biosensors were first equilibrated in PB for before being dipped into more PB to establish the initial baseline. […] The mAb-bound biosensors were then dipped into the thermal stresses cell culture supernatants for 5 minutes.

PIV1070 = molecular target: T28, PIV1070 (PIV1); assay: BLI, 53C stress;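 further: binding of thermally stressed PIV1 F mutant supernatant to mAb on AHC biosensors for 5 min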
T28 construct: F113G, F114S, A466I, S473I, G134A
Protocol: as §1, §3

PIV1069 = molecular target: T29, PIV1069 (PIV1); assay: BLI, 53C stress;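 further: binding of thermally stressed PIV1 F mutant supernatant to mAb on AHC biosensors for 5 min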
T29 construct: F113G, F114S, A466L, S473L, G134A
Protocol: as §1, §3

B1: hMPV-2 mAb (antibody, V domains shown)
VH: QVQLQQSGAEVKKPGASVKVSCKASGYTFTSYGISWVRQAPGQGLEWMGWISGYNGNTNYAQTFQGTFTMTTDTSTSTAYMELRRLRSGDTAVYYCARDRYYASGSYNGMDVWGQGTTVTVSS
VL: QSALTQPPSASGAPGQRVTVSCSGSSSNVGSSSVYWYQQLPGTAPKLLIYRNNQRPSGVPDRFSGSKSGTSASLAISGLRSEDEADYYCAAWDDSLSGWVFGGGTKLTVLG
notes: human IgG1
- Response Shift (hMPV A F WT Control [1]): 0.015 nm
- Response Shift (hMPV090): 0.77 nm
- Response Shift (hMPV088): 0.492 nm
- Response Shift (hMPV087): 0.763 nm
- Response Shift (hMPV084): 0.183 nm
- Response Shift (hMPV079): 0.736 nm
- Response Shift (hMPV085): 0.076 nm
- Response Shift (hMPV081): 0.804 nm
- Response Shift (hMPV097): 0.905 nm
- Response Shift (hMPV083): 0.822 nm
- Response Shift (hMPV086): 0.735 nm
- Response Shift (hMPV078): 0.769 nm
- Response Shift (hMPV082): 0.804 nm
- Fold change vs WT (hMPV A F WT Control [2]): 1 fold
- Fold change vs WT (hMPV044): 2.6 fold
- Fold change vs WT (hMPV049): 1.9 fold
- Fold change vs WT (hMPV060): 2.5 fold
- Fold change vs WT (hMPV061 [3]): 2 fold
- Fold change vs WT (hMPV075): 2.3 fold
- Fold change vs WT (hMPV071): 2.4 fold
- Fold change vs WT (hMPV047): -0.1 fold
- Fold change vs WT (hMPV059): 1.6 fold
- Fold change vs WT (hMPV067): 2.3 fold
- Fold change vs WT (hMPV069): 1.6 fold
- Response Shift (hMPV061 [4]): 0.561 nm
- Response Shift (hMPV063): 0.685 nm
- Response Shift (hMPV045): 0.124 nm
- Response Shift (hMPV048): 0.439 nm

B2: PIV1-8 mAb (antibody, V domains shown)
VH: QVQLVQSGAEVKKPGSSVKVSCEASGGTFSNYVISWVRQAPGQGLEWMGGIIPVFATAKYAQKFQGRVTIIADQSTNTAYLELSSLRSDDTAVYFCASVDSGGTWWDAFAIWGQGTMVTVSS
VL: QAVVTQPRSVSGSPGQAVTISCTGTSSDVGGYNYVSWYQHHPGKAPKLIIYDVTKRPSGVPDRFSGSKSGNTASLTISGLQTEYEADYYCCSYAGSYTLVFGGGTKLTVLG
notes: human IgG1; also called hPIV1-8 mAb; hPIV1-8
- Response Shift [5]: 0.717 nm
- Response Shift (PIV1070): 0.84 nm
- Response Shift (PIV1069): 0.847 nm
